Here are results for 7 molecules from patent publication US20050085420A1, “Method of modulating apoptosis and compositions thereof” (priority 2003, published 2005).

In assay [1] the test system is BAK-X complex. The experiment in a line: DSS cross-linking of BAK-X complex in FL5.12 cells treated with death stimuli. In kind it is cell-based. Conditions: TNFα plus cyclohexamide 5 hours, etoposide (VP16) 24 hours, 10 mM DSS. Here is the method:
FIG. 1B is an illustration depicting the treatment of FL5.12 cells with either TNFα plus cyclohexamide (CHX) for 5 hours (lane 3), etoposide (VP16) for 24 hours (lane 4), or deprived of IL-3 for 18 hours (lane 5), followed by incubation with 10 mM DSS. The BAK-X complex was detected in whole cell lysates by an immunoblot developed with anti-BAK antibody.
Protein crosslinkers were used to search for a candidate protein that interacts with BAK at the mitochondria in viable cells. A ˜60 kD mobility-shifted complex immunoreactive with an antibody (Ab) to BAK was detected after treatment of purified mitochondria (FIG. 1A) or viable whole cells (FIG. 1B) with the crosslinker disuccinimidyl suberate (DSS). This presumed complex between BAK and a candidate ˜35 kD interacting protein was designated “BAK-X.” The ˜60 kD BAK-X complex was distinct in size as compared to BAK homo-oligomers detected by bismaleimidohexane (BMH) crosslinking (FIG. 1A). The same sized BAK complex was detected in multiple cell lines and in normal liver prior to death stimuli (FIG. 1C). The BAK-X complex was lost when mitochondria were treated with tBID (FIG. 1A, C) or cells were treated with death stimuli including TNFα, etoposide, or withdrawal of survival factor (FIG. 1B). Expression of BH3-only members BAD, BIM, or tBID killed cells and diminished the amount of BAK-X complex (FIG. 1D). […]

Another assay concerns Bax -/- MEFs. The experiment in a line: Annexin-V cell death after retroviral expression of VDAC1 or VDAC2 in Bax -/- MEFs. In kind it is cell-based, mouse. The conditions noted are these: Bax -/- cells, retroviral expression, 1.2 μM staurosporine or 10 μg/ml etoposide, Annexin-V. Here is the method:
(§1) FIG. 3A are two graphs illustrating Bax -/- or Bak -/- MEFs at 2 days following retroviral expression of VDAC1, VDAC2, or GFP (MIG vector control), wherein the Bax -/- or Bak -/- MEFs were treated with 1.2 μM staurosporine (STS). Cell death was quantitated by flow cytometric detection of Annexin-V staining at indicated time points. Values shown are mean ±1 SD of three independent experiments.
(§2) FIG. 3B is a histogram depicting Bax -/- or Bak -/- MEFs at 2 days following retroviral expression of VDAC2 or GFP (MIG vector control), wherein the Bax -/- or Bak -/- MEFs were infected with tBID-expressing retrovirus. Cell death was quantitated by flow cytometric detection of Annexin-V staining at 24 hr. Values shown are mean ±1 SD of three independent experiments.
(§3) FIG. 6 are two graphs that depict Bax -/- or Bak -/- MEFs at 2 days following retroviral expression of VDAC1, VDAC2, or GFP (MIG vector control), wherein the Bax -/- or Bak -/- MEFs were treated with 10 μg/ml etoposide. Cell death was quantitated by flow cytometric detection of Annexin-V staining at indicated time points. Values shown are mean ±1 SD of three independent experiments.
(§4) Previous studies have shown that cells doubly deficient for BAX and BAK are resistant to intrinsic death stimuli, whereas cells singly deficient for BAX or BAK are still susceptible (M. C. Wei et al., Science 292, 727-30. (2001)). As VDAC2 interacts with BAK but not BAX, the ability of VDAC2 to modulate apoptosis mediated by BAK or BAX was tested. According to one hypothesis, VDAC2 might function as an inhibitor of BAK or VDAC2 itself might function as a proapoptotic factor once released from BAK. To address these alternatives VDAC 1 or VDAC2 was expressed in Bax -/- or Bak -/- singly deficient mouse embryonic fibroblasts (MEFs) followed by treatment with staurosporine or etoposide. […] Expression of VDAC2 inhibited tBID-induced apoptosis of Bax -/- cells but not Bak -/- cells, further supporting a selective role for VDAC2 in negatively regulating BAK-dependent apoptosis (FIG. 3B).

A further assay concerns Bak -/- MEFs. The experiment in a line: Annexin-V cell death after retroviral expression of VDAC1 or VDAC2 in Bak -/- MEFs. Conditions: Bak -/- cells, retroviral expression, 1.2 μM staurosporine or 10 μg/ml etoposide, Annexin-V. The class given is cell-based, mouse. Here is the method: as §1, §2, §3, §4
Assay [2] deals with T1, BAK-X complex (Mus musculus, UniProt O08734+Q60930).
T1 construct: isolation of mitochondria (50 μg) from wild-type (wt) mouse embryonic fibroblasts (MEFs); endogenous in cells; host or cells: mitochondria from wt MEFs
T1 sequence (O08734 2-209 limits assumed): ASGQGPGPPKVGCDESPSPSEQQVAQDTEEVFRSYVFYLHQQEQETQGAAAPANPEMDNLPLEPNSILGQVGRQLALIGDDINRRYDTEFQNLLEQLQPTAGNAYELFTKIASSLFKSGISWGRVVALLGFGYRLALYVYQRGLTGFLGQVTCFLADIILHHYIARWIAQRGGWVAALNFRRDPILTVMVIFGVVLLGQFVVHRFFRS
T1 sequence (Q60930 1-295): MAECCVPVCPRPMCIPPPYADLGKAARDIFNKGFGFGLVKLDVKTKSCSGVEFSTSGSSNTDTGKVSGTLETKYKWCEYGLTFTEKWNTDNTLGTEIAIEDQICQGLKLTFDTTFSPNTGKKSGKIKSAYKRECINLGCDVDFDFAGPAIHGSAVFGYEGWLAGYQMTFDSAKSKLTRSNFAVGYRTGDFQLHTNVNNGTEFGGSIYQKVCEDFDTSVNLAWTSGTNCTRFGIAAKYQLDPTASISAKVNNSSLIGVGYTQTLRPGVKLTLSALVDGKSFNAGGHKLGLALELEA
Nature of the assay: BAK-X complex after retroviral transduction of BH3-only members in wt MEFs. The conditions noted are these: 24 hours following retroviral transduction, DSS. The class given is cell-based. Here is the method: FIG. 1D is a photograph depicting isolated mitochondria from wt MEFs, in which the isolated mitochondria were treated with DSS 24 hours following retroviral transduction of tBID, BIM, or BAD. The BAK-X complex was detected by an immunoblot developed with an anti-BAK antibody.
Murine vdac1, vdac2, N-terminal HA-tagged vdac2, N-terminal-HA tagged Bax or Bak, as well as wild type and mutant Bak (mBH1, W122A, G123E, R124A; mBH3, L75E) were cloned into the retroviral expression vector MSCV-IRES-GFP (pMIG). PcDNA3-tBID (wt and mutants) was described previously M. C. Wei et al., Genes Dev 14, 2060-71. (2000). Generation of amphotropic retroviruses and retroviral infection were described previously E. H. Cheng et al., Mol Cell 8, 705-11. (2001).
Protein crosslinkers were used to search for a candidate protein that interacts with BAK at the mitochondria in viable cells. […] Wei et al., Genes Dev 14, 2060-71. (2000).

A further assay concerns wt MEFs. Nature of the assay: Cell killing by expression of BH3-only members. The class given is cell-based, mouse. Conditions: retroviral expression.
The next assay deals with T2, VDAC2 (Mus musculus, UniProt Q60930).
T2 construct: expressed in transfected cells; host or cells: vdac1 -/-, vdac3 -/- mouse fibroblasts; wt or vdac2 -/- MEFs; Bax, Bak doubly deficient MEFs (retrovirus pMIG)
T2 sequence (Q60930 1-295): T1 sequence (Q60930 1-295)
Nature of the assay: Anti-HA immunoprecipitation of HA-tagged VDAC2 with BH3-only molecules. The class given is binding. The text has this:
Murine vdac1, vdac2, N-terminal HA-tagged vdac2, N-terminal-HA tagged Bax or Bak, as well as wild type and mutant Bak (mBH1, W122A, G123E, R124A; mBH3, L75E) were cloned into the retroviral expression vector MSCV-IRES-GFP (pMIG). PcDNA3-tBID (wt and mutants) was described previously M. C. Wei et al., Genes Dev 14, 2060-71. (2000). Generation of amphotropic retroviruses and retroviral infection were described previously E. H. Cheng et al., Mol Cell 8, 705-11. (2001). Retroviral expression of each indicated protein was confirmed by immunoblot. […]
The strength of association between BIM-EL and VDAC2 was compared to the strength of the association, if any, between BIM-EL and BAK or BAX. Mitochondria isolated from Bax, Bak doubly deficient MEFs transduced with retrovirus expressing N-terminal HA-tagged BAX, BAK, or VDAC2 were solubilized in 1% CHAPS or 0.2% NP-40 buffer, followed by anti-HA immunoprecipitation. The immunoprecipitates were analyzed by an immunoblot developed with anti-BIM. […] These findings indicate that BH3-only competition for VDAC2 frees BAK, which, in the absence of its specific inhibitor VDAC2, is prone to auto-activating homo-oligomerization. […]

For assay [3], the target named is T1, BAK-X complex. Nature of the assay: DSS cross-linking of BAK-X complex in isolated mitochondria, anti-BAK immunoblot. The conditions noted are these: liver mitochondria 50 μg, 5 μl in vitro transcribed-translated mutant tBID, 30° C. 30 min. The class given is biochemical. Here is the method:
FIG. 1A is an illustration depicting isolation of mitochondria (50 μg) from wild-type (wt) mouse embryonic fibroblasts (MEFs). The isolated mitochondria were incubated with recombinant tBID protein (50 ng) at 30° C. for 30 min, followed by treatment with the cross-linkers disuccinimidyl suberate (DSS) (10 mM) or bismaleimidohexane (BMH) (10 mM) at room temperature for 30 minutes. Higher order BAK complexes were identified by immunoblot developed with an anti-BAK antibody.
FIG. 1C is an illustration depicting treatment of mitochondria (50 μg) isolated from mouse liver, Bal17, Jurkat, and FL5.12 cells with 50 ng tBID protein at 30° C. for 30 min, followed by DSS cross-linking. The BAK-X complex was detected by an immunoblot developed with anti-BAK antibody.
FIG. 1E is a photograph depicting isolated liver mitochondria (50 μg) which were incubated with 5 μl of in vitro transcribed-translated wt or mutant tBID at 30° C. for 30 min, followed by DSS cross-linking. The BAK-X complex was detected by an immunoblot developed with anti-BAK antibody. […]
Protein crosslinkers were used to search for a candidate protein that interacts with BAK at the mitochondria in viable cells. A ˜60 kD mobility-shifted complex immunoreactive with an antibody (Ab) to BAK was detected after treatment of purified mitochondria (FIG. 1A) or viable whole cells (FIG. 1B) with the crosslinker disuccinimidyl suberate (DSS). […]

On to `COc1cc([C@@H]2c3cc4c(cc3[C@@H](O[C@@H]3O[C@@H]5CO[C@@H](C)O[C@H]5[C@H](O)[C@H]3O)[C@H]3COC(=O)[C@H]23)OCO4)cc(OC)c1O` [etoposide], for which the “BAK-X complex when cells were treated with death stimuli” value in the assay on BAK-X complex [1] was “lost”.
Turning to TNFα, the “BAK-X complex when cells were treated with death stimuli” value with BAK-X complex [1] was “lost”.

B1: VDAC1: murine VDAC1 isoform, retrovirally expressed (protein)
chain: AVPPTYADLGKSARDVFTKGYGFGLIKLDLKTKSENGLEFTSSGSANTETTKVNGSLETKYRWTEYGLTFTEKWNTDNTLGTEITVEDQLARGLKLTFDSSFSPNTGKKNAKIKTGYKREHINLGCDVDFDIAGPSIRGALVLGYEGWLAGYQMNFETSKSRVTQSNFAVGYKTDEFQLHTNVNDGTEFGGSIYQKVNKKLETAVNLAWTAGNSNTRFGIAAKYQVDPDACFSAKVNNSSLIGLGYTQTLKPGIKLTLSALLDGKNVNAGGHKLGLGLEFQA
As for B1, the “apoptosis after staurosporine or etoposide” value in the assay with Bax -/- MEFs and with Bak -/- MEFs was “no substantial effect” throughout.

B2: BIM: BH3-only BCL-2 family member, retrovirally expressed (protein, UniProt O54918 1-196, looked up)
Bcl-2-like protein 11: MAKQPSDVSSECDREGGQLQPAERPPQLRPGAPTSLQTEPQGNPDGEGDRCPHGSPQGPLAPPASPGPFATRSPLFIFVRRSSLLSRSSSGYFSFDTDRSPAPMSCDKSTQTPSPPCQAFNHYLSAMASIRQSQEEPEDLRPEIRIAQELRRIGDEFNETYTRRVFANDYREAEDHPQMVILQLLRFIFRLVWRRH
Regarding B2, the “amount of BAK-X complex” value with BAK-X complex [2] is listed as “diminished”. Further, the “cell killing on expression” value in the assay with wt MEFs is “killed cells”.

B3: BIM-EL: BH3-only molecule BIM-EL (protein)
chain: B2 Bcl-2-like protein 11
Turning to B3, the “strength of association with VDAC2 compared to BAX or BAK” value with VDAC2 (Bax, Bak doubly deficient MEFs with HA-tagged BAX, BAK or VDAC2, 1% CHAPS or 0.2% NP-40) is “associate more strongly with VDAC2 than BAX or BAK”. For the same molecule, the “interaction with HA-tagged VDAC2 (co-immunoprecipitation)” value with VDAC2 (mitochondria, anti-HA immunoprecipitation, 1% CHAPS (or 0.2% NP40)) is on record as “strong interaction”.

B4: BAD: BH3-only BCL-2 family member, retrovirally expressed (protein, UniProt Q61337 1-204, looked up)
Bcl2-associated agonist of …: MGTPKQPSLAPAHALGLRKSDPGIRSLGSDAGGRRWRPAAQSMFQIPEFEPSEQEDASATDRGLGPSLTEDQPGPYLAPGLLGSNIHQQGRAATNSHHGGAGAMETRSRHSSYPAGTEEDEGMEEELSPFRGRSRSAPPNLWAAQRYGRELRRMSDEFEGSFKGLPRPKSAGTATQMRQSAGWTRIIQSWWDRNLGKGGSTPSQ
On to B4, for which the “amount of BAK-X complex” value with BAK-X complex [2] was “diminished”. For the same molecule, the “cell killing on expression” value with wt MEFs is reported as “killed cells”.

B5: mIII.1: mutant tBID with BH3 mutation mIII.1, still capable of binding BAK (protein)
chain: GSQASRSFNQGRIEPDSESQEEIIHNIARHLAQIGDEAAHNIQPTLVRQLAAQFMNGSLSEEDKRNCLAKALDEVKTAFPRDMENDKAMLIMTMLLAKKVASHAPSLLRDVFHTTVNFINQNLFSYVRNLVRNEMD
For B5, the “dissociation of the BAK-X complex by mutant tBID” value with BAK-X complex [3] was “caused dissociation”.
